Results on two molecules are retold here after patent US20230272059A1 (TILLOTTS PHARMA, published 2023).

Like-named read-outs stand apart in the source and are kept apart here.

For assay [1], the target named is T1, recombinant human TNFα (human, UniProt P01375 77-233). As to the kind of experiment: cell-based or functional assay.
Assay [2] addresses T1, recombinant human TNFα. Nature of the assay: cell-based or functional assay. This is another data set of the same source.
For assay [3], the target named is T1, recombinant human TNFα. Nature of the assay: cell-based or functional assay. This is another data set of the same source.
Assay [4] deals with recombinant Cynomolgus monkey TNFα (Cynomolgus monkey (Macaca fascicularis), UniProt P79337 77-233). As to the kind of experiment: cell-based or functional assay.
Chain of recombinant Cynomolgus monkey TNFα (P79337 77-233 limits assumed): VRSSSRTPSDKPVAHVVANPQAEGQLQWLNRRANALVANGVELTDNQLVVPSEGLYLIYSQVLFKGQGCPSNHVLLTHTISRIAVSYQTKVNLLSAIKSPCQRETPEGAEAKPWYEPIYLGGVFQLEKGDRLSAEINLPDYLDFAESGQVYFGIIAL
The target of a further assay is Rhesus monkey TNFα (Rhesus monkey (Macaca mulatta), UniProt P48094 77-233). Nature of the assay: cell-based or functional assay.
Chain of Rhesus monkey TNFα (P48094 77-233 limits assumed): as the sequence (P79337 77-233 limits assumed) above, with V37L counted along it
For assay [5], the target named is T1, recombinant human TNFα. Nature of the assay: inhibition ELISA, blocking of biotinylated TNFα binding to coated TNFRII-Fc. Background: An ELISA detects its analyte on a solid surface through an enzyme-linked reagent.
Assay [6] addresses T1, recombinant human TNFα. Nature of the assay: inhibition ELISA, blocking of biotinylated TNFα binding to coated TNFRI-Fc; relative to infliximab.
In assay [7] the target is T1, recombinant human TNFα. Nature of the assay: inhibition ELISA, blocking of biotinylated TNFα binding to coated TNFRII-Fc; relative to infliximab.
Assay [8] deals with T1, recombinant human TNFα. Nature of the assay: inhibition ELISA: biotinylated human TNFα pre-incubated with serially diluted scFv, binding of unblocked TNFα to coated TNFRII-Fc detected.

T1 sequence (P01375 77-233 limits assumed): as the sequence (P79337 77-233 limits assumed) above, with V37L, T44R, N72T, L138R counted along it

B1: humanized scFv 16-22-H05-sc02 (scFv)
scFv: MDIQMTQSPSSLSASVGDRVTIKCQASQSIFSGLAWYQQKPGKAPKLLIYGASKLASGVPSRFSGSGSGTEFTLTISGLQPADFATYYCQSYYYSSSSSDGSYAFGGGTKLTVLGGGGGSGGGGSGGGGSGGGGSEVQLVESGGGLVQPGGSLRLSCKASGIDFNNYGIGWVRQAPGKGLEWITYIYPGFAITNFANSVKGRFTISSDNSKNTVYLQMNSLRAEDTAVYYCARDPVYATSSGYFDLWGQGTLVTVSS
notes: also called 16-22-H05-sc02 (STR); structural graft
Turning to B1, the “L929 assay, rel. IC50 (IC50 infliximab / IC50 scFv, ng/mL)” value with recombinant human TNFα [1] was found to be 13.1. For the same molecule, the “IC50 (read off the curve) (L929 assay, % growth)” value with recombinant human TNFα [2] is roughly 0.5 ng/mL; with recombinant human TNFα [3], roughly 0.6 ng/mL; in assay [4], roughly 3 ng/mL; with Rhesus monkey TNFα it was roughly 3 ng/mL. In the assay with recombinant human TNFα [5], the “IC [ng] (head cut off; probably IC50 [ng/mL])” value was 20 ng (head cut off). Moreover, the “rel. IC50 (IC50 infliximab / IC50 scFv, ng/mL)” value in the assay with recombinant human TNFα [6] was found to be 3.5; in the assay with recombinant human TNFα [7] it was 5.7. In addition, in the assay with recombinant human TNFα [8], the “IC50 (read off the curve)” value is roughly 20 ng/mL.

B2: humanized scFv 16-22-H05-sc04 (scFv)
scFv: MDIQMTQSPSSLSASVGDRVTITCQASQSIFSGLAWYQQKPGKAPKLLIYGASKLASGVPSRFSGSGSGTEFTLTISGLQPADFATYYCQSYYYSSSSSDGSYAFGGGTKLTVLGGGGGSGGGGSGGGGSGGGGSEVQLVESGGGLVQPGGSLRLSCKASGIDFNNYGIGWVRQAPGKGLEWITYIYPGFAITNFANSVKGRFTISSDNSKNTVYLQMNSLRAEDTAVYYCARDPVYATSSGYFDLWGQGTLVTVSS
notes: also called 16-22-H05-sc04 (CDR/STR); domain shuffled variant
Regarding B2, in the assay with recombinant human TNFα [1], the “L929 assay, rel. IC50 (IC50 infliximab / IC50 scFv, ng/mL)” value came to 14.6. The “IC50 (read off the curve) (L929 assay, % growth)” value with recombinant human TNFα [2] is roughly 0.5 ng/mL; with recombinant human TNFα [3] it was roughly 0.6 ng/mL; in [4], roughly 3 ng/mL; in the assay with Rhesus monkey TNFα, roughly 3 ng/mL. Besides, the “IC [ng] (head cut off; probably IC50 [ng/mL])” value in the assay with recombinant human TNFα [5] was 32 ng (head cut off). In addition, the “rel. IC50 (IC50 infliximab / IC50 scFv, ng/mL)” value with recombinant human TNFα [6] came to 2.8; with recombinant human TNFα [7], 3.5. For the same molecule, the “IC50 (read off the curve)” value with recombinant human TNFα [8] is roughly 30 ng/mL.
